Measured values reported in PMC4909209.

Biological target: ubiquitin tagged Ac-AChBP (Aplysia californica acetylcholine binding protein) (Aplysia californica)
Assay: SEC; analytical Superdex 200 10/300 calibrated with molecular weight standards; oligomerization state in solution

stoichiometry N: 5
Substance: ubiquitin tagged Ac-AChBP (Aplysia californica acetylcholine binding protein) (natural protein)
